Like-named read-outs stand apart in the source and are kept apart here.
Assays:
VEGFR-1 Fc chimera [1] = biological target: T1, VEGFR-1 Fc chimera (UniProt P17948 27-758); experiment: SPR
VEGFR-1 Fc chimera [2] = biological target: T1, VEGFR-1 Fc chimera; experiment: SPR; remark: listed apart in the source

T1 sequence (P17948 27-758, change not shown): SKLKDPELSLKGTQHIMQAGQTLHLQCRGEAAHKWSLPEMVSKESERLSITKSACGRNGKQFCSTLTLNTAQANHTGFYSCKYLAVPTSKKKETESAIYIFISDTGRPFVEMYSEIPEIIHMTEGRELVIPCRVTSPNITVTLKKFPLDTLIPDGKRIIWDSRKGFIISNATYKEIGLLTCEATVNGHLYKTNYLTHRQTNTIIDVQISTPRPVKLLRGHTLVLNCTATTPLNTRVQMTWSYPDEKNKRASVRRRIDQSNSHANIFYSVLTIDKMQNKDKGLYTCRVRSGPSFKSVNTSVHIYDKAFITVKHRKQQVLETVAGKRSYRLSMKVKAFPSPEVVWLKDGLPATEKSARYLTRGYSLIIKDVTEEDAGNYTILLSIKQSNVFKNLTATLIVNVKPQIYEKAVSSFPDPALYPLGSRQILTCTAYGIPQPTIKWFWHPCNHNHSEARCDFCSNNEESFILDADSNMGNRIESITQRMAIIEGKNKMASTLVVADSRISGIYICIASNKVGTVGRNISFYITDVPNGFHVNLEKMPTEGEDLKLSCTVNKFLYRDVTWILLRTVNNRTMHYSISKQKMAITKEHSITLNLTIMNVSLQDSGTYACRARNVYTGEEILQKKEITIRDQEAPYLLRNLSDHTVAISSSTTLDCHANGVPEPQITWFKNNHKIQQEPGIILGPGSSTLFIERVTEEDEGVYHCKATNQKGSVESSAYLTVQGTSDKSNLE

Binder	Kd (VEGFR-1 Fc chimera [1]) [nM]	Kd (VEGFR-1 Fc chimera [2]) [nM]
GCTGATAGGATGGGTTGTAGGTCTAGGGGGGGGCC (structured_DNA) [Apt02]	1.5	
GTCGTGTTTGTTGTTGTTTTCATTTTTGCGGCCC (structured_DNA) [Apt01]		3.3

— article PMC7016029
